Substitutions are numbered along the chain they refer to. Like-named read-outs stand apart in the source and are kept apart here.
Assays:
human CD137 [1] = biological target: T1, human CD137 (human, UniProt Q07011); assay: SPR
human CD137 [2] = biological target: T1, human CD137; assay: SPR; remark: listed apart in the source
murine CD137 = biological target: T2, murine CD137 (mouse, UniProt P20334)
T2 chain: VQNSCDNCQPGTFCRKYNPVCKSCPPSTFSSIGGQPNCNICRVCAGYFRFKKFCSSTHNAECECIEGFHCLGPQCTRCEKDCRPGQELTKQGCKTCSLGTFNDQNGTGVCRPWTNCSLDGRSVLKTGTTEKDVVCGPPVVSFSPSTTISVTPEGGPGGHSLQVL

human CD137 [3] = biological target: T1, human CD137; assay: SPR; remark: listed apart in the source
human CD137 [4] = biological target: T1, human CD137; assay: SPR; remark: listed apart in the source

T1 sequence (Q07011 24-186): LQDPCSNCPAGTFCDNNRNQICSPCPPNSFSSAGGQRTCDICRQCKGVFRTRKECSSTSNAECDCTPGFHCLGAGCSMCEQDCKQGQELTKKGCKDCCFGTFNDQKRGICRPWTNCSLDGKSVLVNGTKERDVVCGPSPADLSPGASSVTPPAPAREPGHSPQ

B1: MSH1 (antibody, V domains shown)
VH: QMQLVQSGAEVKKPGASVKVSCKASGYNFGGYYMHWVRQAPGQGLEWMGWVNPHSGGTNYAQKFQGRVTITRDTSASTAYMELSSLRSEDTAVYYCAREGEAWGLDLDLWGQGTLVTVSS
VL: SYELTQPPSVSVAPGKTARITCGGNNIGSKSVHWYQQKPGQAPVLVIYYDSDRPSGIPERFSGSNSGNTATLTISRVEAGDEADYYCQVWDSSSVVFGGGTQLTVL
B1 showed a Kd (human CD137 [1]) of 87.8 nM.

B2: MB3 (antibody, V domains shown)
VH: B1 VH with N28Q, F29M, G30R, V51I, H54N, W103V, L109Y
VL: B1 VL
For B2, the Kd (human CD137 [2]) was 229 nM and the binding result (murine CD137) was “no binding”.

B3: MSC8 (antibody, V domains shown)
VH: B1 VH with H54K, W103V, L109Y
VL: B1 VL
With B3 the Kd (human CD137 [2]) was 218 nM and the binding result (murine CD137) was “no binding”.

B4: MB12 (antibody, V domains shown)
VH: B1 VH with N28S, F29L, G30E, V51I, H54N, W103V, L109Y
VL: B1 VL
With B4 the binding result (murine CD137) was “no binding” and the Kd (human CD137 [3]) was 155 nM.

B5: MC8 (antibody, V domains shown)
VH: QMQLVQSGAEVKKPGASVKVSCKASGYMPDGYYMHWVRQAPGQGLEWMGWINPRTGGTNYAQKFQGRVTITRDTSASTAYMELSSLRSEDTAVYYCAREGAAFRLELDAWGQGTLVTVSS
VL: B1 VL
Work on B5 yielded a Kd (human CD137 [4]) of 30.2 nM.

B6: MSA11 (antibody, V domains shown)
VH: B1 VH with N28S, G30T, H54K, E101W, W103R, G104R, L105I, L109E
VL: B1 VL
With B6 the Kd (human CD137 [4]) was 46.9 nM.

B7: MD4 (antibody, V domains shown)
VH: B5 VH with M28N, P29W, D30T, R54M, T55A, A101W, F103R, R104G, L105V, A109M
VL: B1 VL
B7 was tested, and the Kd (human CD137 [1]) was 8.9 nM.

B8: MSB7 (antibody, V domains shown)
VH: B1 VH with N28S, G30S, H54M, E101M, W103M, G104R, D106E, L109K
VL: B1 VL
B8 showed a Kd (human CD137 [1]) of 16.6 nM.
